Measurements from patent publication US20210355194A1.
Where two headings read alike, the source gives them in different places.

B1: variant 6-81 (Fc fusion)
VHH: EVQLVESGGGLVQPGGSLRLSCAASGFIGNYHAMGWFRQAPGKEREFVAAVTWSGGTTNYADSVKGRFTISADNSKNTAYLQMNSLKPEDTAVYYCAREGYYYDSSGYPYYFDYWGQGTLVTVSS
B2: variant 5-50 (Fc fusion)
VHH: EVQLVESGGGLVQPGGSLRLSCAASGFSLDYYGMGWFRQAPGKEREFVAAITSGGTPHYADSVKGRFTISADNSKNTAYLQMNSLKPEDTAVYYCASAYNPGIGYDWGQGTLVTVSS
B3: variant 6-3 (Fc fusion)
VHH: EVQLVESGGGLVQPGGSLRLSCAASGFTFSPSWMGWFRQAPGKEREFVATINEYGGRNYADSVKGRFTISADNSKNTAYLQMNSLKPEDTAVYYCARVDRDFDYWGQGTLVTVSS

Legend:
Details in all cases: remark: other sources report otherwise
[1] = target: SARS-COV2-S1 RBD (mouse IgG2Fc tag) (SARS-CoV-2), P0DTC2
[2] = target: T1, CV S-protein construct 6 trimer TP31001F (SARS-CoV-2), P0DTC2; test: SPR
[3] = target: T1, CV S-protein construct 6 trimer …; test: SPR; remark: listed apart in the source
[4] = target: SARS-COV2-S1 RBD (mouse IgG2Fc tag) (SARS-CoV-2), P0DTC2; remark: listed apart in the source
[5] = target: SARS-COV2-S1 RBD (mouse IgG2Fc tag) (SARS-CoV-2), P0DTC2; test: FACS, blocks S1 RBD-mFc binding to ACE2 on Vero E6
[6] = target: SARS-COV2-S1 RBD (mouse IgG2Fc tag) (SARS-CoV-2), P0DTC2; test: column not explained; likely FACS, S1 RBD on Vero E6
[7] = target: SARS-COV2-S1 RBD (mouse IgG2Fc tag) (SARS-CoV-2), P0DTC2; test: FACS, S1 RBD-mFc on Vero E6 (ACE2)

Binder	IC50 [1] [nM]	Kd [2] [nM]	Kd [3] [nM]	IC50 [4] [nM]	IC50 [5] [nM]	MFI Fold Decrease [6] [fold]	Competition Factor [7]
B1	1.38	3.9	3.9				
B2			3.8	1.61			
B3					0.74	9.51	9.51
